Patent JP2019156807A
“And” between values parts separate entries of the source, which are not always exact repeats. Equal entries are not always repeated.

B1: 抗ヒトCD26モノクローナル抗体U16−3 (antibody, V domains shown)
VH: EVKLVESGGGLVQPGGSLKLSCATSGFTFSDFYMYWVRQTPEKRLEWVAYISKGGGTTSYPDTVKGRFTISRDNAKNTLYLQLSRLKAEDSAMYYCARRMDYWGQGTSVTVSS
VL: DVQMNQSPSSMYASLGERVTITCKASQDINSYLSWFQQKPGKSPKTLIYRANRLVDGVPSRFSGSGSGQDYSLTISSLDYEDMGIYYCLQYDEFPLTFGAGTKLELK
B2: 抗ヒトCD26モノクローナル抗体U38−8 (antibody, V domains shown)
VH: B1 VH
VL: DVVVTQTPLSLPVSLGDQASISCRSSQGLEHSSGNTYLHWYLQRPGQSPKLLIYKVSNRFSGVPDRFSGSGSGTDFTLKISRVEAEDLGVYFCSQSTPVPTWTFGGGTKLEIK

Molecular target: 変性ヒトCD26(ホルマリン固定パラフィン包埋した細胞・組織中、又はSDS/DTT煮沸処理した細胞溶解物中のヒトCD26) (human) (UniProt P27487)
Sequence of UniProt P27487 (P27487 whole entry): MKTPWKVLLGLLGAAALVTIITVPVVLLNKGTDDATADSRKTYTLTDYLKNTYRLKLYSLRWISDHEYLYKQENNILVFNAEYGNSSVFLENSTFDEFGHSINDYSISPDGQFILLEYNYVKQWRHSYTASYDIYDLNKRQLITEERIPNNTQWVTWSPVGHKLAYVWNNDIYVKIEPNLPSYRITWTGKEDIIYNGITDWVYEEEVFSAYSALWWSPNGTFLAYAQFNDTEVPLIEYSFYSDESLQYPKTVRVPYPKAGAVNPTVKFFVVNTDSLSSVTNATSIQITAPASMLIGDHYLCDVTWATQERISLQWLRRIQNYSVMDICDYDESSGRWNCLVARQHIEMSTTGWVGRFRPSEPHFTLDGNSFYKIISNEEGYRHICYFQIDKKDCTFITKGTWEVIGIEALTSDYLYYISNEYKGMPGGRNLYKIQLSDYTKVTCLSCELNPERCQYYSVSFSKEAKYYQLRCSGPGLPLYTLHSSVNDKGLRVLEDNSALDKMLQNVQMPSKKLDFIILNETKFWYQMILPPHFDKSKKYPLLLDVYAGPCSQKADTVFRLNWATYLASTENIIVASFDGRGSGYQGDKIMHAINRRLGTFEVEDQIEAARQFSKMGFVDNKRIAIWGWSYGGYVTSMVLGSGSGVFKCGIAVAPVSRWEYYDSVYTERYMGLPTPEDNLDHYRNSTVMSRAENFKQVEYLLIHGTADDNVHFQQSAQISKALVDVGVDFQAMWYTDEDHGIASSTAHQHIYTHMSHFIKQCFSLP
Assay: immunostaining of FFPE samples, titration of purified antibody (data not shown)

Row | Binder | 免疫染色の最適濃度
1 | B1 | 0.1 μg/mL and 0.2 μg/mL
2 | B2 | 0.5 μg/mL
